The target of this assay is HLA-A*02:01. Description: IEDB peptide-MHC binding, purified MHC/direct/fluorescence; filed as Kd, often an IC50 or EC50 that approximates it; ≥ and ≤ were set here for values at or beyond the usual limits of such assays. Particulars: source organism: Human immunodeficiency virus 1.

What is called Kd is the concentration at which binding is half-saturated. A low value points to a tighter complex.

KSLFNTVAVL yielded a Kd of 5 nM.

Regarding RSLYNTIAVLY, the Kd was 5 nM.

Sequence RSLFNTIATLY registered a Kd of 5 nM.

With SLYNTIAVLY, the Kd came out at 5 nM.

For the sequence RSLYNTIAVL, the Kd stood at 5 nM.

In the case of KSLYNTVATLY, the Kd stood at 5 nM.

As for SLFNTIATLY, the Kd stood at 5 nM.

Consider SLFNTIAVLY, for which the Kd worked out at 5 nM.

The sequence KSLFNTIAVLY returned a dissociation constant Kd of 5 nM.

Sequence SLYNTIATLY gave a Kd of 5 nM.

With KSLYNTIATL, the Kd came to 5 nM.

Turning to KSLYNTIAVL, the Kd was 5 nM.

RSLFNTVAVLY displayed a Kd of 5 nM.

For the sequence RSLFNTIAVL, the Kd turned out to be 5 nM.

In turn, RSLFNTVATL had a Kd of 5 nM.

The sequence SLFNTVATLY came in with a Kd of 5 nM.

As to KSLYNTIATLY, the Kd stood at 20 nM.

Consider KSLFNTVATL, for which the Kd is 5 nM.

In the case of KSLFNTIATLY, the Kd is 5 nM.

The sequence KSLYNTVAVL showed a Kd of 5 nM.

RSLYNTVATLY gave a Kd of 10 nM.

RSLYNTVAVL had a Kd of 5 nM.

In the case of KSLYNTVAVLY, the Kd stood at 5 nM.

The sequence KSLFNTIATL displayed a dissociation constant (Kd) of 5 nM.

For RSLYNTIATL, the Kd is 10 nM.

RSLFNTVAVL yielded a Kd of 10 nM.

Sequence SLFNTVAVLY gave a Kd of 5 nM.

In turn, RSLYNTVATL showed a Kd of 10 nM.

Take RSLFNTIAVLY: the Kd came to 5 nM.

Consider KSLFNTIAVL, for which the Kd was determined as 5 nM.

In the case of KSLFNTVATLY, the Kd is 5 nM.

Regarding SLYNTVAVLY, the Kd came out at 5 nM.

Sequence RSLYNTVAVLY yielded a Kd of 10 nM.

Take RSLYNTIATLY: the Kd amounted to 40 nM.

KSLYNTVATL had a Kd of 10 nM.

The record behind these values is the Immune Epitope Database (IEDB).
